# In US20240398942A1, “USE OF ANTI-CD40 ANTIBODY” (CHIA TAI TIANQING PHARMACEUTICAL GROUP CO., LTD., priority 2021, published 2024):
# Values joined by “and” are separate entries in the source; they are usually repeats but may differ in a detail not shown here. Equal values may be shown once. Read-outs that look alike come from different tables or passages of the source. Marks after values point to notes of the source that are not given here.
# Legend:
# Human CD40-his = molecular target: T1, Human CD40-his (Homo sapiens, UniProt P25942); assay: Octet kinetics of humanized C1H1 antibodies; assay type: binding; conditions: Table 3, Octet; for Ka: humanized antibodies in cell supernatant, chimeric and benchmark 5 μg/mL
# T1 construct: His; purchased Acro biosystems CD0-H5228
# T1 sequence (P25942 21-277): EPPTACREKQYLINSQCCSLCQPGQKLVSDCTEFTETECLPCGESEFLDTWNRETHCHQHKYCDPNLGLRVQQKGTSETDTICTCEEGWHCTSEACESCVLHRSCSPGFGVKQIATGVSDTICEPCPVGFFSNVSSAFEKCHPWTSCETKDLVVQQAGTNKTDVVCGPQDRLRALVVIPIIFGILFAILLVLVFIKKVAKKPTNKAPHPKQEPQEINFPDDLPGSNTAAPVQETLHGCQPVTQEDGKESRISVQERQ
# Experimental: After six days of culture in a shake flask, the cell supernatant containing the humanized antibodies huC1H1-V1 to huC1H1-V4 was harvested and the binding affinity of the antibodies to human CD40 was determined on an Octet system (Fortebio, Octet RED 96) according to the following procedures. Briefly, an anti-human IgG Fc capture (AHC) biosensor (from ForteBio) was pre-soaked in a 10 mM glycine solution (pH 1.5) for 3 s, and then soaked in a running buffer (PBST containing 0.5% w/v of BSA) for 3 s. The pre-soaking and soaking procedures were repeated 3 times. Then, the sensor was soaked in the cell supernatant containing the humanized anti-CD40 antibody, chimeric antibody C1H1 dissolved in HBS-EP^+ buffer at a concentration of 5 μg/mL, or the benchmark dissolved in HBS-EP^+ buffer at a concentration of 5 μg/mL for 120 s, and then soaked in the running buffer for 5 min. The new baseline was run in the running buffer for 180 s. The sensor was then soaked for 120 s in human CD40-his protein (Acro biosystems, Cat. No. CD0-H5228) 2-fold serially diluted from 40 nM in the running buffer and for 10 min in the running buffer […]. Finally, the sensor was pre-soaked in a 10 mM glycine solution (pH 1.5) for 3 s, and then soaked in the running buffer for 3 s. The pre-soaking and soaking procedures were repeated 3 times. The association and dissociation curves were fitted to a 1:1 Langmuir binding model using ForteBio Data Analysis 8.1.
# [1] = tested on: CD40 signal transduction in 293T-NF-κB-Luc-CD40 cells; assay: Cell-based reporter assay; set-up: species or system human; conditions: in words, FIGS. 2A-2C and 7
# Excerpt: The agonistic activity of the anti-CD40 antibody of the present application was further determined in a CD40 expression reporter cell line 293T-NF-κB-Luc-CD40, which stably expresses full-length human CD40 (uniprot No. P25942-1, SEQ ID NO: 30). According to the instructions of lipofectamine 3000 transfection reagent (Thermo Fisher), a pGL4.32 [luc2P NF-κB-RE Hygro] vector (Promega, GenBank® Accession No. EU581860) and a pCMV-T-P plasmid (with a CD40 coding sequence inserted between the EcoRI and Khal loci) were transfected into 293T cells in sequence to prepare 293T-NF-κB-Luc-CD40 cells.
# Briefly, 293T-NF-κB-Luc-CD40 cells at the log phase were resuspended in DMEM medium (Gibco Inc., Cat. No. 10566-016) containing 10% of FBS (Gibco Inc., Cat. No. 10099-141), and seeded on a 384-well plate (Corning, Cat. No. 3707) at 20 μL/well (containing 5×10^3 cells). Then, the anti-CD40 antibody of the present application or the controls (including an in-house prepared anti-CD22 antibody as a negative control) serially 3-fold diluted from 200 nM in the medium was added at 20 μL per well and incubated at 37° C. for 6 h. […] The chemiluminescence values were measured using Tecan Infinit® 200 Pro. Data were analyzed using Graphpad Prism software, and EC50 values were obtained.
# [2] = tested on: human B-cell lymphoma Ramos cells; assay: In vivo anti-tumor efficacy, human B-cell lymphoma Ramos xenograft model; conditions: for Tumor volume on day 0: baseline at grouping; for Tumor volume on day 0 / Tumor volume on day 14: mean ± standard error; for TGI: day 14; for T/C: day 14 vs isotype control
# Experimental: The in vivo anti-tumor activity of antibody huC1H1-V2 was measured in NOD-SCID mice. Briefly, 3×10^7 human B-cell lymphoma Ramos cells (Chinese Academy of Sciences) were injected subcutaneously in the right axilla of NOD-SCID mice. The tumor volume was measured using an electronic vernier caliper and calculated according to the formula (length×width^2)/2. When the mean tumor volume reached about 100-150 mm^3, 40 tumor-bearing mice were selected and randomly divided into 4 groups (10 mice per group), with the date of grouping designated as day 0. According to the administration regimen shown in Table 6, the mice were intravenously administered with the isotype control antibody (anti-HEL-Human IgG2 Isotype-control, also referred to as IgG2, Biointron Inc.) or antibody huC1H1-V2 via tail veins since day 0.
# [3] = tested on: human B-cell lymphoma Ramos cells; assay: Efficacy of anti-CD40 antibody and anlotinib, Ramos subcutaneous xenograft mouse model; assay type: in vivo
# Experimental: Human B-cell lymphoma Ramos cells (purchased from the Cell Bank of the Chinese Academy of Sciences) were cultured in an RPMI1640 medium containing 10% of fetal bovine serum and penicillin-streptomycin. The cells were inoculated in a 37° C./5% CO2 incubator until the logarithmic growth phase and collected for grafting.
# The mice used in this study were NOD-Scid mice (purchased from Shanghai Lingchang Biotechnology Co., Ltd.) aged about 6 weeks and bred in specific pathogen-free conditions in 12/12-hour light/dark cycles. The health status of the animals was monitored daily.
# Each mouse was inoculated subcutaneously with 1×10^7 Ramos cells. When the tumor grew to 80-100 mm^3, the mice were divided into groups of 10 according to the tumor volume. The administration regimen is shown in Table 10, with the first dosing day designated as DO. Antibody huC1H1-V2 and IgG2 (Biointron, Cat. No. B107803) were both formulated to desired concentrations with normal saline, and anlotinib dihydrochloride was formulated at desired concentrations with distilled water. At the end of study (D14), the animals were sacrificed by CO2 anesthesia and dissected to give the tumors. The tumors were photographed.
# The tumor diameters were measured twice weekly with a vernier caliper. Tumor volume (V)=½×a×b^2, wherein a and b denote length and width, respectively; T/C (%)=(T−T0)/(C−C0)×100, wherein T and C refer to the tumor volumes of the treatment group and the IgG2 control group on day 14, respectively, and TO and C0 refer to the tumor volumes of the treatment group and IgG2 control group on day 0, respectively; the tumor growth inhibition % (TGI %)=100−T/C (%). When the tumor regressed, the tumor growth inhibition % (TGI %)=100−(T−T0)/T0×100. If the tumor volume was smaller than the initial volume, i.e., T<T0 or C<C0, the outcome was defined as partial regression (PR); if the tumors completely disappeared, i.e., the outcome was defined as complete regression (CR).
molecule,measurement,setting,value
"huC1H1-V1: humanized C1H1 anti-CD40 antibody, VH SEQ ID NO: 20 X1=A, VL SEQ ID NO: 24 X1=K X2=F, human IgG2/κ (antibody, V domains shown, not fully specified; human IgG2/kappa constant regions; VH of huC1H1-V1 to huC1H1-V4; VARIANT 49 X can be A or S; VL of huC1H1-V1 to huC1H1-V4; VARIANT 49 X can be K or Y; VARIANT 87 X can be F or Y) VH: EVQLVESGGGLVKPGGSLRLSCAASGFTFSNYGISWVRQAPGKGLEWVXSISSGGDNTYYPDNVKGRFTISRDNAKNSLYLQMNSLRAEDTAVYYCARAGEKAMDYWGQGTLVTVSS VL: EIVLTQSPATLSLSPGERATLSCRASQTINNNLHWYQQKPGQAPRLLIXYASQSISGIPARFSGSGSGTDFTLTISSLEPEDFAVYXCQQFSSWPLTFGGGTKVEIK",Kd,Human CD40-his; dissociation rate,0.00128 s⁻¹
same,Ka,Human CD40-his,1.41e+06 M⁻¹ s⁻¹
same,Kd,Human CD40-his; read-out: KD,904 pM
same,Agonistic activity (activation of CD40 signal transduction),[1],higher than those of BM1 and BM2
"huC1H1-V2: humanized C1H1 anti-CD40 antibody, VH SEQ ID NO: 20 X1=S, VL SEQ ID NO: 24 X1=K X2=F, human IgG2/κ (antibody, V domains shown, not fully specified; variable positions X1=S; VL X1=K X2=F; IgG2/kappa constant; VH of huC1H1-V1 to huC1H1-V4; VARIANT 49 X can be A or S; VL of huC1H1-V1 to huC1H1-V4; VARIANT 49 X can be K or Y; VARIANT 87 X can be F or Y) VH: EVQLVESGGGLVKPGGSLRLSCAASGFTFSNYGISWVRQAPGKGLEWVXSISSGGDNTYYPDNVKGRFTISRDNAKNSLYLQMNSLRAEDTAVYYCARAGEKAMDYWGQGTLVTVSS VL: EIVLTQSPATLSLSPGERATLSCRASQTINNNLHWYQQKPGQAPRLLIXYASQSISGIPARFSGSGSGTDFTLTISSLEPEDFAVYXCQQFSSWPLTFGGGTKVEIK",Kd,Human CD40-his; dissociation rate,0.000981 s⁻¹
same,Ka,Human CD40-his,1.65e+06 M⁻¹ s⁻¹
same,Kd,Human CD40-his; read-out: KD,596 pM
same,Tumor volume on day 0,[2]; 1.5 mg/kg i.v. Q2D × 8 doses,111.1 ± 2.0 mm^3
same,Tumor volume on day 14,[2]; 1.5 mg/kg i.v. Q2D × 8 doses,431.9 ± 58.0*** mm^3
same,TGI,[2]; 1.5 mg/kg i.v. Q2D,88%
same,T/C,[2]; 1.5 mg/kg i.v. Q2D,12%
same,Tumor volume on day 0,[2]; 5 mg/kg i.v. Q2D × 8 doses,114.5 ± 1.5 mm^3
same,Tumor volume on day 14,[2]; 5 mg/kg i.v. Q2D × 8 doses,230.2 mm^3 and 230.2 ± 36.3*** mm^3
same,TGI,[2]; 5 mg/kg i.v. Q2D,96%
same,T/C,[2]; 5 mg/kg i.v. Q2D,4%
same,Tumor volume on day 0,[2]; 15 mg/kg i.v. Q2D × 8 doses,114.3 ± 1.3 mm^3
same,Tumor volume on day 14,[2]; 15 mg/kg i.v. Q2D × 8 doses,242.5 ± 22.1*** mm^3
same,TGI,[2]; 15 mg/kg i.v. Q2D,95%
same,T/C,[2]; 15 mg/kg i.v. Q2D,5%
same,Tolerability (weight loss or other symptoms),"[2]; 1.5, 5, 15 mg/kg i.v. Q2D × 8 doses, tumor-bearing mice",well tolerated
same,Mean tumor volume (mean ± SD) D 0,"[3]; baseline, huC1H1-V2 0.5 mg/kg i.p. once every 2 days × 8, anlotinib dihydrochloride 1 mg/kg intragastric daily × 15",89.3 ± 0.8 mm^3
same,Mean tumor volume (mean ± SD) D 14,"[3]; huC1H1-V2 0.5 mg/kg i.p. once every 2 days × 8, anlotinib dihydrochloride 1 mg/kg intragastric daily × 15",1546.7 ± 198.5 mm^3
same,TGI D 14 (tumor growth inhibition rate),"[3]; huC1H1-V2 0.5 mg/kg i.p., anlotinib dihydrochloride 1 mg/kg intragastric",58%
same,Tolerability (symptoms such as weight loss),"[3]; huC1H1-V2 0.5 mg/kg i.p., anlotinib dihydrochloride 1 mg/kg intragastric, tumor-bearing mice",well tolerated
same,T/C D 14,"[3]; vs IgG2 group, huC1H1-V2 0.5 mg/kg i.p., anlotinib dihydrochloride 1 mg/kg intragastric",42%
same,Agonistic activity (activation of CD40 signal transduction),[1],higher than those of BM1 and BM2
